# Reference: patent US5591427A, “Human Interleukin-3(Il-3) variants and their use to promote or antagonize IL-3-mediated processes” (Medvet Science Pty. Ltd., priority 1979, dated 1997)
# T1: IL-3R α chain (Homo sapiens, UniProt P26951)
# T1 construct: amplify the complete coding region of the IL-3R alpha chain; expressed in transfected cells; host or cells: COS cells (pCDM8 vector, electroporation)
# T1 sequence (P26951 19-378): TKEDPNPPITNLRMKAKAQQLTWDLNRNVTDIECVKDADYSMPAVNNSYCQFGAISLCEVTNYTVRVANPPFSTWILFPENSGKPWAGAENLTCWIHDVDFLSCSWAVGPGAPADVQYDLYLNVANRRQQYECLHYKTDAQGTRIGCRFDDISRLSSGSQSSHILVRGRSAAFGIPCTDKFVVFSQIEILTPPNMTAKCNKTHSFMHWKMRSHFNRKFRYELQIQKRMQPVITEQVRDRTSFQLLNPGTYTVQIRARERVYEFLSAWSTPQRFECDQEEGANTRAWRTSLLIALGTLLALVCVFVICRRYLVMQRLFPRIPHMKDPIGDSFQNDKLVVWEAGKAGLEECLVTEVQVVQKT
# B1: M37: human IL-3 mutant, Asp 101 replaced by Ala and Lys 116 by Val (protein, UniProt P08700 20-152, looked up, variant D101A K116V)
# Interleukin-3: APMTQTTPLKTSWVNCSNMIDEIITHLKQPPLPLLDFNNLNGEDQDILMENNLRRPNLEAFNRAVKSLQNASAIESILKNLLPCLPLATAAPTRHPIHIKAGDWNEFRRKLTFYLVTLENAQAQQTTLSLAIF
# Molecular target: T1, IL-3R α chain
# Experiment: Competition for 125I-IL-3 binding to cloned IL-3R α chain expressed in COS cell transfectants
# Conditions: for competition for 125I-IL-3 binding to cells expressing only the α chain: FIG. 6
# Excerpt: PolyA+ RNA was isolated from the human cord blood cell line KMT2. Oligo dT primed double stranded cDNA was synthesised and used as template for PCR amplification. The PCR primers were designed to amplify the complete coding region of the IL-3R alpha chain and also to amplify the coding region of the […]. The PCR products were cloned into the vector pGEM-2 for sequence verification, and then into the eukaryotic expression vector, pCDM8. The […]-containing plasmid was transfected into COS cells by electroporation, either on its own or in conjunction with the […], and after two days the cells were used for binding studies.
molecule,measurement,setting,value
B1,fold higher affinity than wild type IL-3,"COS cells transfected with IL-3R α chain cDNA, E. coli produced protein",10 fold
same,competition for 125I-IL-3 binding to cells expressing only the α chain,,competed for binding more efficiently
same,competition for 125I-IL-3 binding to cells expressing only the α chain,"listed as IL-3 (Ala^101, Val^116)",more potent at competing for binding than wild-type IL-3
